± gives the uncertainty stated by the source.
Assay: self-splicing fitness, log relative to wild type (ln ratio); higher = more splicing; Tetrahymena group I intron in knt gene, E. coli kanamycin selection, DiMSum; sequences stand for … in CUCUCU…GGAGGGAAAAGUUAUCAGGCAUGCACCUGGUAGCUAGUCUUUAAACCAAUAGAUUGCAUCGGUUUAAAAGGCAAGACCGUCAAAUUGCGGGAAAGGGGUCAACAGCCGUUCAGUACCAAGUCUCAGGGGAAACUUUGAGAUGGCCUUGCAAAGGGUAUGGUAAUAAGCUGACGGACAUGGUCCUAACCACGCAGCCAAGUCCUAAGUCAACAGAUCUUCUGUUGAUAUGGAUGCAGUUCACAGACUAAAUGUCGGUCGGGGAAGAUGUAUUCUUCUCAUAAGAUAUAGUCGGACCUCUCCUUAAUGGGAGCUAGCGGAUGAAGUGAUGCAACACUGGAGCCGCUGGGAACUAAUUUGUAUGCGAAAGUAUAUUGAUUAGUUUUGGAGUACUCGUGGUCG
In short: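 Library with all eight P1ex-region intron nucleotides randomised, intron inside the knt kanamycin-resistance gene on pET-22b(+), in E. coli BL21(DE3). Cells grew overnight at 37°C or 30°C on LB agar with or without 25 μg/mL kanamycin (plus 100 μg/mL carbenicillin, 50 μM IPTG, 0.2% rhamnose), in six replicate transformations. Pooled colonies were amplicon-sequenced on Illumina HiSeq 2500. DiMSum fitness is the error-weighted combination of wild-type-normalised replicate fold changes, kanamycin versus none.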

Row | Sequence | self-splicing fitness (ln) (30 °C) | self-splicing fitness (ln) (37 °C)
1 | AUAUAGCAAUAUUACGGCGA | -0.84 ± 0.12 | -0.69 ± 0.13
2 | AUAUAGCAAUAUUACGGCUA | -0.422 ± 0.1 | -0.506 ± 0.12
3 | AUAUAGCAAUAUUACGGGGC | -3.4 ± 0.43 | -2.48 ± 0.32
4 | AUAUAGCAAUAUUACGGUGG | -3.4 ± 0.22 | -2.44 ± 0.25
5 | AUAUAGCAAUAUUACGUACA | -1.07 ± 0.14 | -0.785 ± 0.16
6 | AUAUAGCAAUAUUACGUCAA | -2.93 ± 0.25 | -2.06 ± 0.2
7 | AUAUAGCAAUAUUACGUCAG | -3.76 ± 0.31 | -1.62 ± 0.25
8 | AUAUAGCAAUAUUACGUCCC | -1.01 ± 0.17 | 0.139 ± 0.32
9 | AUAUAGCAAUAUUACGUCUU | -0.0336 ± 0.1 | -0.378 ± 0.1
10 | AUAUAGCAAUAUUACGUGCU | -1.24 ± 0.092 | -0.807 ± 0.13
11 | AUAUAGCAAUAUUACGUGUC | -4.06 ± 0.34 | -1.88 ± 0.32
12 | AUAUAGCAAUAUUACGUUGG | -4.08 ± 0.42 | -2.04 ± 0.26
13 | AUCAAGCAAUAUUACGAAGC | -3.81 ± 0.43 | –
14 | AUCAAGCAAUAUUACGAAUG | -3.16 ± 0.13 | -0.57 ± 0.1
15 | AUCAAGCAAUAUUACGAGAU | -2.81 ± 0.16 | -2.67 ± 0.21
16 | AUCAAGCAAUAUUACGAGGA | -2.51 ± 0.19 | -2.65 ± 0.26
17 | AUCAAGCAAUAUUACGAGGC | -3.86 ± 0.21 | -2.57 ± 0.2
18 | AUCAAGCAAUAUUACGAUGU | -0.836 ± 0.083 | -0.217 ± 0.091
19 | AUCAAGCAAUAUUACGAUUG | -4.34 ± 0.3 | -3.41 ± 0.3
20 | AUCAAGCAAUAUUACGCACU | -0.00274 ± 0.081 | 0.0749 ± 0.097
21 | AUCAAGCAAUAUUACGCAGA | -2.21 ± 0.18 | -2.52 ± 0.23
22 | AUCAAGCAAUAUUACGCAGU | -2.61 ± 0.14 | -1.71 ± 0.15
23 | AUCAAGCAAUAUUACGCCCA | -0.266 ± 0.15 | 0.0648 ± 0.2
24 | AUCAAGCAAUAUUACGCCCU | 0.228 ± 0.14 | 0.617 ± 0.18

Row | Sequence | self-splicing fitness (ln) (30 °C) | self-splicing fitness (ln) (37 °C)
25 | AUCAAGCAAUAUUACGCCGG | -1.22 ± 0.19 | 0.522 ± 0.2
26 | AUCAAGCAAUAUUACGCGAA | -0.924 ± 0.094 | -1.22 ± 0.12
27 | AUCAAGCAAUAUUACGCGCG | -1.01 ± 0.094 | -0.0559 ± 0.13
28 | AUCAAGCAAUAUUACGCGGA | -2.07 ± 0.1 | -1.94 ± 0.088
29 | AUCAAGCAAUAUUACGCGGC | -3.39 ± 0.33 | -1.98 ± 0.29
30 | AUCAAGCAAUAUUACGCUUA | -1.75 ± 0.1 | -0.843 ± 0.1
31 | AUCAAGCAAUAUUACGGACG | -0.832 ± 0.083 | 0.117 ± 0.11
32 | AUCAAGCAAUAUUACGGACU | -0.672 ± 0.076 | 0.456 ± 0.096
33 | AUCAAGCAAUAUUACGGAGU | -2.18 ± 0.095 | -0.783 ± 0.11
34 | AUCAAGCAAUAUUACGGCAG | -1.58 ± 0.085 | -1.55 ± 0.12
35 | AUCAAGCAAUAUUACGGCCG | -0.0854 ± 0.092 | -0.00151 ± 0.15
36 | AUCAAGCAAUAUUACGGCGU | 0.235 ± 0.1 | 0.219 ± 0.11
37 | AUCAAGCAAUAUUACGGGCG | -1.34 ± 0.06 | -0.467 ± 0.079
38 | AUCAAGCAAUAUUACGGGGC | -3.13 ± 0.24 | -3.01 ± 0.26
39 | AUCAAGCAAUAUUACGGGGG | -3.79 ± 0.22 | -2.64 ± 0.15
40 | AUCAAGCAAUAUUACGGGUU | -3.44 ± 0.14 | -1.22 ± 0.11
41 | AUCAAGCAAUAUUACGUAAC | -2.98 ± 0.16 | -2.18 ± 0.19
42 | AUCAAGCAAUAUUACGUAUU | -2.7 ± 0.09 | -1.5 ± 0.11
43 | AUCAAGCAAUAUUACGUCGC | -4 ± 0.2 | -2.65 ± 0.11
44 | AUCAAGCAAUAUUACGUCUU | -1.86 ± 0.072 | -0.301 ± 0.073
45 | AUCAAGCAAUAUUACGUGAC | -2.04 ± 0.12 | -1.07 ± 0.11
46 | AUCAAGCAAUAUUACGUGAG | -0.619 ± 0.046 | 0.349 ± 0.073
47 | AUCAAGCAAUAUUACGUGUU | -3.23 ± 0.11 | -1.58 ± 0.097
48 | AUCAAGCAAUAUUACGUUUU | -1.6 ± 0.097 | -0.791 ± 0.12

Row | Sequence | self-splicing fitness (ln) (30 °C) | self-splicing fitness (ln) (37 °C)
49 | AUCCAGCAAUAUUACGAAAG | -3.77 ± 0.18 | -2.76 ± 0.21
50 | AUCCAGCAAUAUUACGACCA | -0.725 ± 0.15 | -0.224 ± 0.17
51 | AUCCAGCAAUAUUACGCAAG | -2.75 ± 0.18 | 0.207 ± 0.14
52 | AUCCAGCAAUAUUACGCACC | -1.19 ± 0.13 | 0.657 ± 0.17
53 | AUCCAGCAAUAUUACGCGAC | -2.56 ± 0.14 | -1.86 ± 0.18
54 | AUCCAGCAAUAUUACGCGGA | -3.7 ± 0.25 | -2.5 ± 0.17
55 | AUCCAGCAAUAUUACGCUCG | -1.75 ± 0.26 | -0.356 ± 0.22
56 | AUCCAGCAAUAUUACGCUUA | -0.592 ± 0.064 | 0.389 ± 0.094
57 | AUCCAGCAAUAUUACGCUUG | -3.27 ± 0.2 | -2.7 ± 0.25
58 | AUCCAGCAAUAUUACGGACA | -0.527 ± 0.099 | -0.096 ± 0.11
59 | AUCCAGCAAUAUUACGGACC | -1.71 ± 0.13 | 0.282 ± 0.13
60 | AUCCAGCAAUAUUACGGAGC | -3.09 ± 0.21 | -2.2 ± 0.24
61 | AUCCAGCAAUAUUACGGCCA | -0.362 ± 0.071 | -0.298 ± 0.084
62 | AUCCAGCAAUAUUACGGCGG | -1.04 ± 0.09 | -0.327 ± 0.11
63 | AUCCAGCAAUAUUACGGCGU | -0.0553 ± 0.058 | 0.269 ± 0.07
64 | AUCCAGCAAUAUUACGGGAG | -1.63 ± 0.066 | -1.32 ± 0.074
65 | AUCCAGCAAUAUUACGGGGC | -2.89 ± 0.14 | -2.82 ± 0.26
66 | AUCCAGCAAUAUUACGGUCU | -0.68 ± 0.053 | -0.109 ± 0.074
67 | AUCCAGCAAUAUUACGUAAC | -1.82 ± 0.13 | -1.91 ± 0.22
68 | AUCCAGCAAUAUUACGUAGA | -0.783 ± 0.073 | -0.0552 ± 0.12
69 | AUCCAGCAAUAUUACGUCAG | -2.99 ± 0.11 | -2.15 ± 0.12
70 | AUCCAGCAAUAUUACGUCCC | -0.894 ± 0.22 | -1.1 ± 0.28
71 | AUCCAGCAAUAUUACGUGCA | -1.63 ± 0.091 | -0.196 ± 0.091
72 | AUCCAGCAAUAUUACGUGCC | -3.16 ± 0.21 | -1.09 ± 0.16

Row | Sequence | self-splicing fitness (ln) (30 °C) | self-splicing fitness (ln) (37 °C)
73 | AUCCAGCAAUAUUACGUGCG | -1.65 ± 0.078 | -0.875 ± 0.076
74 | AUCCAGCAAUAUUACGUGUG | -1.79 ± 0.057 | -0.983 ± 0.06
75 | AUCGAGCAAUAUUACGAAUU | -3.57 ± 0.25 | -2.1 ± 0.2
76 | AUCGAGCAAUAUUACGACGG | -3.75 ± 0.44 | -1.7 ± 0.33
77 | AUCGAGCAAUAUUACGAGUU | -2.66 ± 0.23 | -1.31 ± 0.18
78 | AUCGAGCAAUAUUACGCAAG | -3.22 ± 0.43 | -1.72 ± 0.26
79 | AUCGAGCAAUAUUACGCGGC | -2.86 ± 0.5 | -3.13 ± 0.47
80 | AUCGAGCAAUAUUACGGCGG | -2.61 ± 0.14 | -1.36 ± 0.14
81 | AUCGAGCAAUAUUACGGGAA | -2.59 ± 0.24 | -2.4 ± 0.22
82 | AUCGAGCAAUAUUACGGGUC | -3.91 ± 0.19 | -3.15 ± 0.18
83 | AUCGAGCAAUAUUACGGUGG | – | -2.04 ± 0.36
84 | AUCGAGCAAUAUUACGGUUG | -3.96 ± 0.42 | -3.32 ± 0.37
85 | AUCGAGCAAUAUUACGUCAG | -3.36 ± 0.21 | -2.99 ± 0.22
86 | AUCGAGCAAUAUUACGUCUC | -3.13 ± 0.22 | -2.18 ± 0.33
87 | AUCGAGCAAUAUUACGUGGC | -2.91 ± 0.26 | -2.52 ± 0.49
88 | AUCGAGCAAUAUUACGUGUA | -3.46 ± 0.33 | -2.11 ± 0.18
89 | AUCGAGCAAUAUUACGUUAG | -3.73 ± 0.29 | -0.583 ± 0.21
90 | AUCGAGCAAUAUUACGUUCU | -1.32 ± 0.074 | -1 ± 0.089
91 | AUCGAGCAAUAUUACGUUGA | -3.44 ± 0.27 | -2.94 ± 0.22
92 | AUCGAGCAAUAUUACGUUGG | -4.07 ± 0.42 | -2.37 ± 0.31
93 | AUCUAGCAAUAUUACGAUUU | -0.629 ± 0.084 | 0.317 ± 0.11
94 | AUCUAGCAAUAUUACGCAAC | -3.38 ± 0.37 | -2.06 ± 0.32
95 | AUCUAGCAAUAUUACGCACU | -1.42 ± 0.17 | 0.0807 ± 0.17
